How the values were obtained:
bcl-2 = experiment: Antibody array screen, salivary ductal cells; assay type: cell-based, human; conditions: lacritin 10 ng/ml, 1 minute; tyrosine phosphorylation as gauge
Protocol: (§1) Lacritin's function in cell survival was first assessed in an antibody array screen. Serum-free cultures of salivary ductal cells were treated either with recombinant lacritin at 10 ng/ml or an equal volume of 1×PBS (dialysis medium for recombinant lacritin) for 1 minute.

FAS/APO-1 = experiment: Antibody array screen, salivary ductal cells; assay type: cell-based, human; conditions: lacritin 10 ng/ml, 1 minute; tyrosine phosphorylation as gauge
Protocol: as §1

48 kDa band in HSG cells = experiment: Tyrosine phosphorylation of 48 kDa band, HSG cells; assay type: cell-based, human
Protocol: (§2) Freshly isolated rat lacrimal acinar cells, and HSG (human salivary gland) ductal and HCE (human corneal epithelial) cell lines were used to study lacritin function. For secretion studies, rat acinar cells were plated serum-free overnight on wells co-coated with 0.05 μM laminin 1 (to ensure adhesion) and 0 to 20 μM lacritin, or alternatively with laminin-1 (0.05 μM) and treated the next day with serum-free medium containing 0 to 162 ng/ml of soluble lacritin for four hours. Unstimulated and stimulated (carbachol 10^−4 M/VIP 10^−8 M) secretions were then collected, assessed (peroxidase assay) and normalized to μg cellular DNA. To study tyrosine phosphorylation, overnight serum-free cultures of both rat lacrimal acinar and HSG cells were washed and treated with 10 ng/ml of soluble lacritin for 0.5, 2.5, 10, and 30 minutes. Py(20) anti-phosphotyrosine antibody immunoprecipitation of cell lysates was then examined in Western blots of 7% SDS PAGE gels using Py(20) and ECL for detection. […] Using an inverted Zeiss 510 LSM for visualization, 50 second baseline images were first recorded. While the laser was running, lacritin was added (final concentration 4 and 40 ng/ml) and the response continually monitored every 786 msec for a minimum of 200 sec.

[1] = system: p42 and p44 MAPK (MAPK1 and MAPK3); experiment: p42/p44 MAPK activation blot in HSG cells; assay type: cell-based, human
Protocol: For phosphotyrosine blotting and mitogenesis assays, cells in serum-containing media were seeded overnight in 24-well plates at a density of 0.5×10^5 cells/mm^2 corresponding to 20-30% confluency after cell attachment, incubated in serum-free media without supplements for 24 h (phosphotyrosine) or washed with serum-free media without supplements three times (mitogenesis) and incubated with lacritin (1-1000 nM), or positive controls EGF (1.6 nM) and 10% fetal bovine serum, or negative controls bovine serum albumin or no additive in serum-free media without supplements for the indicated times (phosphotyrosine) or 30 h (mitogenesis). […] After washing, bound antibodies were detected with peroxidase-labeled secondary antibody and ECL. […] Incorporation was stopped with ice-cold phosphate buffered saline and followed by addition of cold and then room temperature trichloracetic acid (10%) for 10 min each, washing of cells with phosphate buffered saline, solubilization with 1 N sodium hydroxide, neutralization with 1 N hydrochloric acid, addition of scintillation fluid and then quantitation in a scintillation counter. […] Seventy-two hours post-transfection, mitogenesis was assessed by co-addition of 10 […] lacritin and [^3H]-thymidine (2 mCi/ml) (Amersham, Piscataway N.J.) for 24 hrs. […]

[2] = system: 48 kDa band in rat lacrimal cells; experiment: Tyrosine phosphorylation of 48 kDa band, rat lacrimal cells; assay type: cell-based
Protocol: as §2

[3] = system: human corneal epithelial cells; experiment: Calcium signaling in human corneal epithelial cells (Fluo-3AM); assay type: cell-based; conditions: HCE cells
Protocol: as §2

B1: lacritin: recombinant human lacritin from E. coli; mature 119 residue fragment (SEQ ID NO:10) of native lacritin SEQ ID NO:4 (protein, listed as Homo sapiens)
chain: EDASSDSTGADPAQEAGTSKPNEEISGPAEPASPPETTTTAQETSAAAVQGTAKVTSSRQELNPLKSIVEKSILLTEQALAKAGKGMHGGVPGGKQFIENGSEFAQKLLKKFSLLKPWA
increase in bcl-2 tyrosine phosphorylation (bcl-2): 11%
change in FAS/APO-1 levels (FAS/APO-1): −81%
tyrosine phosphorylation of a 48 kDa band (48 kDa band in HSG cells): promoted the transient tyrosine phosphorylation
activation of p42 and p44 MAPK [1]: no activation
tyrosine phosphorylation of a 48 kDa band [2]: promoted the transient tyrosine phosphorylation
rapidity of lacritin-dependent calcium mobilization [3]: 20 to 30 s
calcium signals ([3]; serum-free): rapid and sustained calcium waves
